The target of test [1] is 6×His-tagged AvrSr35 (residues 27 to 578) (Puccinia graminis f. sp. tritici). Briefly: AUC.
The target of test [2] is Sr35 (Triticum monococcum) (UniProt S5ABD6). Briefly: cryo-EM structure.
Test [3] has the same target. Briefly: MST.

With “6×His-tagged AvrSr35 (residues 27 to 578) (natural protein)”, the stoichiometry N in test [1] worked out at 2; in test [2] it was 1. For the same substance, the Kd in test [3] came to 7.8 µM.

Values taken from publication PMC9462685 (Science Advances, 2022).
